Reference: patent US20230002496A1 (STAIDSON BEIJING BIOPHARMACEUTICALS, published 2023)
Substitutions are numbered along the chain they refer to. Values belong to the binder of their own block, whether it stands above or below them.

Tests used:
[1] = molecular target: T1, human GM-CSFRα, full length on cells (human, UniProt P15509 23-400); assay: cell-based or functional assay
T1 sequence: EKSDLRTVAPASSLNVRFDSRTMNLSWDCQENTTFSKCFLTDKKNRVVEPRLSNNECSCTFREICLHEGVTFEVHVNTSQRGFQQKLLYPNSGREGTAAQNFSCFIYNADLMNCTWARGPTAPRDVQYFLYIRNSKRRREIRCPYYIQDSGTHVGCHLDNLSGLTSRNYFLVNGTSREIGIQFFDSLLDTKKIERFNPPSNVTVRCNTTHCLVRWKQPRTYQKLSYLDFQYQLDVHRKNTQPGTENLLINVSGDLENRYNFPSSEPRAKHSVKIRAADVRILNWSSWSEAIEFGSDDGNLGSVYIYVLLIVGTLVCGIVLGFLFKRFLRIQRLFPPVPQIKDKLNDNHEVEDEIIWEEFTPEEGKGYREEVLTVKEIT

[2] = molecular target: T1, human GM-CSFRα, full length on cells; assay: cell-based or functional assay; remark: listed apart in the source
[3] = molecular target: T1, human GM-CSFRα, full length on cells; assay: cell-based or functional assay; remark: listed apart in the source
[4] = molecular target: T1, human GM-CSFRα, full length on cells; assay: cell-based or functional assay; remark: listed apart in the source
[5] = molecular target: T1, human GM-CSFRα, full length on cells; assay: cell-based or functional assay; remark: listed apart in the source
[6] = molecular target: T2, cynomolgus monkey GM-CSFRα on granulocytes (cynomolgus monkey, UniProt A0A2K5UC70 23-393); assay: cell-based or functional assay
T2 sequence: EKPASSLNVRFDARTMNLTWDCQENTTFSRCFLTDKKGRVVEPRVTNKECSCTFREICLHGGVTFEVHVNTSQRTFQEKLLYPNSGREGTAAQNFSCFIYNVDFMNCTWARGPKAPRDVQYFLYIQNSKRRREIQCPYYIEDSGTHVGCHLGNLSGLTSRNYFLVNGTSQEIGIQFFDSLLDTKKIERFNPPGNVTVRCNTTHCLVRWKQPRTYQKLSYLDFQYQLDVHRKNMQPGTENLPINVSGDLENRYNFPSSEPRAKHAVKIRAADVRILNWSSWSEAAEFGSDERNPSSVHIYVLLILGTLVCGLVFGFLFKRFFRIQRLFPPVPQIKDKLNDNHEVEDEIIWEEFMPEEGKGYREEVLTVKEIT

[7] = molecular target: T1, human GM-CSFRα, full length on cells; assay: cell-based or functional assay; remark: listed apart in the source
[8] = molecular target: T1, human GM-CSFRα, full length on cells; assay: cell-based or functional assay; remark: listed apart in the source
[9] = molecular target: T3, human GM-CSFRα-6His (human, UniProt P15509 23-320); assay: SPR, Biacore T200, antibody (IgG4) on CM5 chip, GMRah as analyte
T3 construct: pTT5-GMRa-6his (ECD), made in 293F cells; also called GMRah; GMRa-6his(ECD)
T3 sequence: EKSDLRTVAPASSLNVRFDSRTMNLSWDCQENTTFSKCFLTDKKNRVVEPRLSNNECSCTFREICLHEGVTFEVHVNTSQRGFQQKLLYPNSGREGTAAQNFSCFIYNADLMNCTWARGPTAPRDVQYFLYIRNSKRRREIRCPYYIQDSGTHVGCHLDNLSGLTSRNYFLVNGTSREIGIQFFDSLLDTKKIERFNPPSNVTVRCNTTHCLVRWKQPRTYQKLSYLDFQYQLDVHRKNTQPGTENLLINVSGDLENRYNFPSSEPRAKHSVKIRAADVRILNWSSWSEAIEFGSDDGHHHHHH
Method: The affinities for GMRah at various concentrations were measured. […] The concentrations of 0.625 and 0 nM were repeated once. Using the SPR technology, the association and dissociation rates were measured, and binding affinity was determined.

[10] = molecular target: T3, human GM-CSFRα-6His; assay: ELISA, antibodies as human IgG4, one bar for each protein; antibody concentration not shown

IC50, TNFα secretion by PBMC (ELISA) [1]: 0.329 µg/mL
IC50, TNFα secretion by PBMC (Human Macrophage/Microglia Panel) [3]: 0.278 µg/mL
IC50, CD11b expression on human peripheral blood cells [4]: 0.111 µg/mL
IC50, TF-1 cell proliferation [5]: 0.0474 µg/mL
IC50, cynomolgus monkey granulocyte shape change [6]: 0.00253 µg/mL
IC50, human granulocyte shape change [7]: 0.00205 µg/mL
IC50, IL-1β secretion by PBMC [8]: 0.00353 µg/mL
Kd [9]: 8.9 pM
koff [9]: 4.78e-05 s⁻¹
kon [9]: 5.37e+06 M⁻¹ s⁻¹
B1: E35-IgG4 (antibody, V domains shown)
VH: QMQLVQSGAEVKKPGASVKVSCKVSGYTLTELSIHWVRQAPGKGLEWMGGFDPEDGETIYAQKFQGRVTMTGDTSTDTAYLELSSLRSEDTALYYCATGRYTSLATTYGFDYWGQGTLVTVSS
VL: EIVMTQSPATLSLSPGERATLSCRASQSVSSYLAWYQQKPGQAPRLLIYGASSRATGIPDRFSGSGSGTDFTLTISRLEPEDFAVYYCQQYDNWPYTFGQGTKLEIK
notes: human IgG4, human kappa; also called E35-IG4
IC50, human granulocyte survival [2]: 0.0042 µg/mL

binding result [10]: binds
B2: E87-IgG4 (antibody, V domains shown)
VH: B1 VH with F64S, T102V, A105F, T106F, T107N
VL: B1 VL with D92N, Y96P
notes: human IgG4, human kappa
